We go through four molecules from article PMC10567701 (Nature Communications, 2023).

Where no end group is shown, it is not given here.

B1: LptD (natural protein, Escherichia coli, UniProt P31554 25-784, looked up)
chain: ADLASQCMLGVPSYDRPLVQGDTNDLPVTINADHAKGDYPDDAVFTGSVDIMQGNSRLQADEVQLHQKEAPGQPEPVRTVDALGNVHYDDNQVILKGPKGWANLNTKDTNVWEGDYQMVGRQGRGKADLMKQRGENRYTILDNGSFTSCLPGSDTWSVVGSEIIHDREEQVAEIWNARFKVGPVPIFYSPYLQLPVGDKRRSGFLIPNAKYTTTNYFEFYLPYYWNIAPNMDATITPHYMHRRGNIMWENEFRYLSQAGAGLMELDYLPSDKVYEDEHPNDDSSRRWLFYWNHSGVMDQVWRFNVDYTKVSDPSYFNDFDNKYGSSTDGYATQKFSVGYAVQNFNATVSTKQFQVFSEQNTSSYSAEPQLDVNYYQNDVGPFDTRIYGQAVHFVNTRDDMPEATRVHLEPTINLPLSNNWGSINTEAKLLATHYQQTNLDWYNSRNTTKLDESVNRVMPQFKVDGKMVFERDMEMLAPGYTQTLEPRAQYLYVPYRDQSDIYNYDSSLLQSDYSGLFRDRTYGGLDRIASANQVTTGVTSRIYDDAAVERFNISVGQIYYFTESRTGDDNITWENDDKTGSLVWAGDTYWRISERWGLRGGIQYDTRLDNVATSNSSIEYRRDEDRLVQLNYRYASPEYIQATLPKYYSTAEQYKNGISQVGAVASWPIADRWSIVGAYYYDTNANKQADSMLGVQYSSCCYAIRVGYERKLNGWDNDKQHAVYDNAIGFNIELRGLSSNYGLGTQEMLRSNILPYQNTL
notes: LptD, E. coli, UniProt P31554; mature protein (theoretical mass 87,080 Da); Untagged; Cysteines at 31, 173, 724 and 725 (C1 to C4); the mature oxidized form LptD^Ox has the disulfides C1-C3 and C2-C4; samples from ΔlptM cells also hold partially oxidized forms; also called LptD^CCCC; wild-type LptD; source: E. coli BW25113 (wild-type or ΔlptM), overproduced from pLptDE^His or pLptDEM^His; …
B2: LptE^His (natural protein)
chain: not shown
modifications: tri-acylated (mature and tri-acylated protein)
notes: LptE, E. coli, UniProt P0ADC1; mature and tri-acylated lipoprotein (theoretical mass with the tag 21,348 Da); also called C-terminally poly-histidine tagged variant of LptE; source: E. coli BW25113 (wild-type or ΔlptM), overproduced from pLptDE^His or pLptDME^His; DDM-solubilized envelope fraction; not shown: poly-histidine, C-terminal, kept
B3: LptE (natural protein)
chain: not shown
modifications: tri-acylated (mature and tri-acylated protein)
notes: LptE, E. coli, UniProt P0ADC1; mature and tri-acylated lipoprotein (theoretical mass 20,248 Da); Untagged; source: E. coli BW25113 ΔlptM, overproduced from pLptDEM^His; DDM-solubilized envelope fraction
B4: LptM^His (natural protein, Escherichia coli, UniProt P0ADN6 20-67, looked up)
chain: CGLKGPLYFPPADKNAPPPTKPVETQTQSTVPDKNDRATGDGPSQVNY
modifications: also: tri-acylated
notes: LptM (formerly YifL), E. coli, UniProt P0ADN6; mature and tri-acylated lipoprotein (theoretical mass with the tag 6,988 Da); also called C-terminally poly-histidine tagged version of E. coli LptM; YifL; source: E. coli BW25113 ΔlptM, overproduced from pLptDEM^His or pLptM^His; DDM-solubilized envelope fraction; not shown: poly-histidine, C-terminal, kept

In experiment [1] the target is B3. The experiment is described as follows: native MS; co-expressed and Ni-affinity co-purified complexes LptDE^His and LptDEM^His, ~10-20 μM in 200 mM ammonium acetate pH 7.4, 0.03% DDM; nano-electrospray, positive ion mode. As to conditions: both partners purified.
Experiment [2] addresses B4. The description is as above. As to conditions: both partners purified.
Experiment [3] deals with B1. In words: pull-down; Ni-affinity purification of LptE^His from the DDM-solubilized envelope fraction of wild-type (lptM^+) cells with pLptDE^His; Ni-NTA 2 h at 4 °C, 50 mM Tris-HCl pH 8, 150 mM NaCl, DDM; SDS-PAGE or BN-PAGE, Coomassie staining or Western blotting. As to conditions: partners not purified.
Experiment [4] deals with B1. In words: HDX-MS; LPS translocon produced in the presence or absence of LptM, purified in detergent micelles; 20 μM protein diluted in deuterated buffer (20 mM MES pH 6.5, 200 mM NaCl), 20 °C, 0.5 to 30 min; pepsin digestion. The following applies: both partners purified.
Experiment [5] addresses B3. The experiment is described as above. The following applies: both partners purified.

As for B1, the “stoichiometry N” value in experiment [1] and in experiment [2] was 1 in each case. Regarding B2, the binding result in experiment [3] is “binds”. B3: the “stoichiometry N” value in experiment [2] came out at 1. Consider B4, for which the binding result in experiment [4] and in experiment [5] was “binds” throughout.

For orientation: stoichiometry N means the number of molecules, sites or subunits per partner or assembly.
